{"source": "patent US6770446B1", "about": "“Cell systems having specific interaction of peptide binding pairs” (Wyeth, priority 1994, dated 2004)", "key": {"KDR": {"target": "KDR (Homo sapiens, UniProt P35968)"}, "[1]": {"target": "RGS-Z fused to the Gal4 activation domain (RGS-Z-pACT2) (yeast; human) (UniProt O76081)", "assay": "cell-based or functional assay"}, "[2]": {"target": "T1, extracellular domain of rat growth hormone receptor (GHR, amino acids 1-247) fused to the Gal4 DNA binding … (yeast; rat, UniProt P04386 1-147; P16310 19-265)", "T1 construct": "Expressed inside yeast (two-hybrid); also called GHR fusion; GHR-GAL4 fusion; not shown: polylinker residues of pAS2; not described", "assay": "yeast two-hybrid, HIS3 growth on selective medium (strain CY722)"}, "[3]": {"target": "T2, GH and GHR fusion proteins (Rattus norvegicus, UniProt P16310)", "T2 construct": "encoding amino acids 1-247 of the rat GHR (Baumbach et al., 1989); expressed in transfected cells; host or cells: Saccharomyces cerevisiae CY770 (URA- derivative of Y190)", "T2 sequence (P16310 19-265)": "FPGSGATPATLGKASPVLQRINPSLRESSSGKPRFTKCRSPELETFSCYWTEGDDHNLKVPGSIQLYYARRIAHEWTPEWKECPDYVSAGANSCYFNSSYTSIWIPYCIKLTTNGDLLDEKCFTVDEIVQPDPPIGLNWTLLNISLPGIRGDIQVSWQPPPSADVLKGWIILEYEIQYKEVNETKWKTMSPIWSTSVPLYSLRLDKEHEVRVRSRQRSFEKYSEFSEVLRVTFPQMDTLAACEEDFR", "assay": "Yeast two-hybrid competition assay: free peptide co-expressed with GH and GHR fusion proteins, growth on selective medium", "assay_type": "cell-based", "design": "key to Growth: +: scored for cell growth, indicated by a plus", "conditions": "for Effect of co-expressed free peptide on GH-GHR-dependent cell growth on selective medium: free peptide expressed from pCUP in a strain with GH and GHR fusions"}, "[4]": {"target": "T1, extracellular domain of rat growth …", "assay": "in vivo competition in yeast two-hybrid, free GH from pCUP (strain CY781)"}, "[5]": {"target": "T3, KChIP1 fused to the Gal4 activation domain (hKChIP1-pACT2) (yeast; human, UniProt Q9NZI2-2 1-216, limits assumed)", "T3 sequence (looked up)": "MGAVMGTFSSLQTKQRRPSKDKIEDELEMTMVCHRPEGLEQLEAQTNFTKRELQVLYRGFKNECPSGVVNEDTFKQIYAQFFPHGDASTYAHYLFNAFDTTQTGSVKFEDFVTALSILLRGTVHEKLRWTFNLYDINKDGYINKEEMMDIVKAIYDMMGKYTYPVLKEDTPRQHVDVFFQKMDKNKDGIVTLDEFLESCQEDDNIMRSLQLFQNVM", "assay": "cell-based or functional assay"}, "[6]": {"target": "T4, PRL and PRLR fusion proteins (Sus scrofa, UniProt Q6JTA8, M232L/S231T)", "T4 construct": "flank the extracellular domain of the PRLR, encoding amino acids 1-229; expressed in transfected cells; host or cells: Saccharomyces cerevisiae (URA- derivative of Y190; strains CY786/CY787)", "T4 sequence (Q6JTA8 with tags, fused parts or gaps)": "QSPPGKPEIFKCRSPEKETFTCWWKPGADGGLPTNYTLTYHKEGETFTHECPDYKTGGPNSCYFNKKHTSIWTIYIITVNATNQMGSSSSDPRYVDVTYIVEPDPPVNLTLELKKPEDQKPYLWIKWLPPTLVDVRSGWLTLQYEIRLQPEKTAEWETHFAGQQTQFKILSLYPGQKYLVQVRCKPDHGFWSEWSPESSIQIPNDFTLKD", "assay": "Yeast two-hybrid competition assay: free peptide co-expressed with PRL and PRLR fusion proteins, growth on selective medium", "assay_type": "cell-based, porcine", "conditions": "free peptide expressed from pCUP in a strain with PRL and PRLR fusions", "text": "To expand and validate this technology, a similar system was developed using the peptide hormone prolactin (PRL) and its receptor. Prolactin is structurally related to GH and the prolactin receptor (PRLR) is also a member of the cytokine receptor superfamily. […] Mature porcine PRL is generated as a fusion to the GAL4 activation domain. Oligonucleotides are designed to pig PRL (obtained from GenBank; […] No. X14068), and used to generate the mature pig PRL protein hormone from a pig pituitary lambda gt11 library, using standard PCR methods. A 31 base 5' oligonucleotide includes an EcoRI site ([NT] ID NO: 7) and corresponds to sequences encoding amino acids 1-7. A 30 base 3' oligonucleotide contains an EcoRI site ([NT] ID NO: 8) and corresponds to a region of cDNA 3' to the endogenous termination codon. A 600 bp fragment is obtained, ligated into vector pCR 11, and confirmed by restriction enzyme digest and sequence analysis. The PRL cDNA is cloned into pACT-II via the EcoRI site. The extracellular domain of the porcine PRL receptor (PRLR) is generated as a fusion to GAL4 DNA binding domain. Oligonucleotides are designed based on sequence of the mouse PRLR (Davis and Linzer, 1989) A 31 base 5' oligonucleotide contains a […] ID NO: 9) while the 31 base 3' oligonucleotide contains a termination codon followed by a […] ID NO: 10). […]"}}, "note": "Values joined by “and” are separate entries in the source; they are usually repeats but may differ in a detail not shown here. Equal entries are not always repeated.", "data": [{"molecule": "VEGF", "values": [{"measurement": "Growth on selective media of strain expressing two KDR receptor fusion proteins plus free ligand", "setting": "KDR", "value": "substantial growth on selective media"}]}, {"molecule": "constitutively active G-alphaZ Q205L fused to the Gal4 DNA binding domain (Q205L/GaZ-pGBKT7) (from UniProt P04386 1-147; P19086 1-355)", "values": [{"measurement": "firefly luciferase activity, ybn66L in a 75:25 mix with ybn77L (OD 0.25 and 0.15) (luminescence units)", "setting": "[1]", "value": 950000}, {"measurement": "increase in Renilla luciferase activity, strain ybn70L", "setting": "[1]", "value": 40, "unit": "fold"}, {"measurement": "induction of luciferase activity, interaction strain (ybn66L) against control strains", "setting": "[1]", "value": "5 fold and 10 fold"}]}, {"molecule": "porcine growth hormone (GH) fused to the Gal4 activation domain (GH in pACT-II) (ligand, UniProt P01248 27-216, looked up, not shown: large carriers; small tags and cut ends, mature; Expressed inside yeast (two-hybrid); also called GH-Gal4 fusion protein; GH fusion) FPAMPLSSLFANAVLRAQHLHQLAADTYKEFERAYIPEGQRYSIQNAQAAFCFSETIPAPTGKDEAQQRSDVELLRFSLLLIQSWLGPVQFLSRVFTNSLVFGTSDRVYEKLKDLEEGIQALMRELEDGSPRAGQILKQTYDKFDTNLRSDDALLKNYGLLSCFKKDLHKAETYLRVMKCRRFVESSCAF", "values": [{"measurement": "binding result", "setting": "[2]", "value": "binds"}]}, {"molecule": "GH: mature porcine growth hormone expressed as free ligand from pCUP plasmid (protein, UniProt P01248 27-216, looked up) Somatotropin: FPAMPLSSLFANAVLRAQHLHQLAADTYKEFERAYIPEGQRYSIQNAQAAFCFSETIPAPTGKDEAQQRSDVELLRFSLLLIQSWLGPVQFLSRVFTNSLVFGTSDRVYEKLKDLEEGIQALMRELEDGSPRAGQILKQTYDKFDTNLRSDDALLKNYGLLSCFKKDLHKAETYLRVMKCRRFVESSCAF", "values": [{"measurement": "Effect of co-expressed free peptide on GH-GHR-dependent cell growth on selective medium", "setting": "[3]", "value": "block GH-GHR-dependent cell growth on selective medium"}]}, {"molecule": "free porcine growth hormone expressed from pCUP (GH-pCUP) (ligand, UniProt P01248 27-216, looked up, mature; Non-fusion GH; also called free GH; free ligand) FPAMPLSSLFANAVLRAQHLHQLAADTYKEFERAYIPEGQRYSIQNAQAAFCFSETIPAPTGKDEAQQRSDVELLRFSLLLIQSWLGPVQFLSRVFTNSLVFGTSDRVYEKLKDLEEGIQALMRELEDGSPRAGQILKQTYDKFDTNLRSDDALLKNYGLLSCFKKDLHKAETYLRVMKCRRFVESSCAF", "values": [{"measurement": "binding result", "setting": "[4]", "value": "binds"}]}, {"molecule": "N-terminus of the potassium channel 4.3 (hKv4.3N) fused to the Gal4 DNA binding domain (hKv4.3N-pGBT9) (other, yeast;human, UniProt P04386 1-147, looked up) MKLLSSIEQACDICRLKKLKCSKEKPKCAKCLKNNWECRYSPKTKRSPLTRAHLTEVESRLERLEQLFLLIFPREDLDMILKMDSLQDIKALLTGLFVQDNVNKDAVTDRLASVETDMPLTLRQHRISATSSSEESSNKGQRQLTVSMAAGVAAWLPFARAAAIGWMPVANCPMPLAPADKNKRQDELIVLNVSGRRFQTWRTTLERYPDTLLGSTEKEFFFNEDTKEYFFDRDPEVFRCVLNFYRTGKLHYPRYECISAYDDELAFYGILPEIIGDCCYEEYKDRKRENAERLMDDNDSENNQESMPSLSFRQTMWRAFENPHTST", "values": [{"measurement": "increase in Renilla luciferase activity, strain ybn77L", "setting": "[5]", "value": 25, "unit": "fold"}, {"measurement": "increase in luciferase activity (Gal1/10-luciferase reporter), both fusions against one fusion plus empty vector", "setting": "[5]", "value": 30, "unit": "fold"}, {"measurement": "increase in luciferase activity (low copy CEN Gal-luciferase reporter Kp132), test strain against negative control strain", "setting": "[5]", "value": 100, "unit": "fold"}]}, {"molecule": "PRL: mature porcine prolactin expressed as free peptide from pCUP plasmid (protein, left off: large carriers; small tags and cut ends, mature porcine prolactin expressed as free peptide from pCUP plasmid) LPICPSGAVNCQVSLRDLFDRAVILSHYIHNLSSEMFNEFDKRYAQGRGFITKAINSCHTSSLSTPEDKEQAQQIHHEVLLNLILRVLRSWNDPLYHLVTEVRGMQEAPDAILSRAIEIEEQNKRLLEGMEKIVGQVHPGIKENEVYSVWSGLPSLQMADEDTRLFAFYNLLHCLRRDSHKIDNYLKLLKCRIIYDSNC", "values": [{"measurement": "Effect of co-expressed free peptide on GH-GHR-dependent cell growth on selective medium", "setting": "[3]", "value": "grows on selective medium"}, {"measurement": "Growth", "setting": "[3]; strain with GH and GHR fusions plus free peptide expressed from pCUP, selective medium, 3 to 5 days at 30 C", "value": "+"}, {"measurement": "Effect of co-expressed free peptide on PRL-PRLR-dependent cell growth on selective medium", "setting": "[6]", "value": "growth is abrogated"}]}]}
